Assay in all cases: cell-based or functional assay
For experiment [1], the target named is T1, CD228 on cells stably expressing exogenous CD228 gene (MC38-CD228, A375-CD228, A549-CD228) (UniProt P08582 20-709).
T1 sequence (looked up): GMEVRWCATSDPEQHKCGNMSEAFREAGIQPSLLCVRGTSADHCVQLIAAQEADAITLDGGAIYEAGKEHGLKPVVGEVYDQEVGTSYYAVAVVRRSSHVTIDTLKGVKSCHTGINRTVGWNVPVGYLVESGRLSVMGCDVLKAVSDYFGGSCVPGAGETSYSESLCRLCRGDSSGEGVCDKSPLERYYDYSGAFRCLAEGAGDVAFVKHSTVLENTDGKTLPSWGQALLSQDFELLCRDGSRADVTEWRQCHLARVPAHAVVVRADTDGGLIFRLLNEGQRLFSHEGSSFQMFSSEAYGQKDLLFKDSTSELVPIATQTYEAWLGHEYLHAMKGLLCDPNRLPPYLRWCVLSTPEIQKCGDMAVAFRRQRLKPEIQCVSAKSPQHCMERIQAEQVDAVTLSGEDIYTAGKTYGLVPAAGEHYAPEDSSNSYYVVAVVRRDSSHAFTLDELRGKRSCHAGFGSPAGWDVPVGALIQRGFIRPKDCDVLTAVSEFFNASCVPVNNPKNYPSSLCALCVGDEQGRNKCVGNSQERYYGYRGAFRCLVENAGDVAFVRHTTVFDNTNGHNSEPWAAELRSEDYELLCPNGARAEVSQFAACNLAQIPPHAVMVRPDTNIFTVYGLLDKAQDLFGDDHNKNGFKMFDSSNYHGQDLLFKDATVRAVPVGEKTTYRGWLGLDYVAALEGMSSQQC

The target in experiment [2] is T2, CD228 protein on human melanoma SK-MEL-5 cells (human, UniProt P08582 20-709).
T2 sequence (looked up): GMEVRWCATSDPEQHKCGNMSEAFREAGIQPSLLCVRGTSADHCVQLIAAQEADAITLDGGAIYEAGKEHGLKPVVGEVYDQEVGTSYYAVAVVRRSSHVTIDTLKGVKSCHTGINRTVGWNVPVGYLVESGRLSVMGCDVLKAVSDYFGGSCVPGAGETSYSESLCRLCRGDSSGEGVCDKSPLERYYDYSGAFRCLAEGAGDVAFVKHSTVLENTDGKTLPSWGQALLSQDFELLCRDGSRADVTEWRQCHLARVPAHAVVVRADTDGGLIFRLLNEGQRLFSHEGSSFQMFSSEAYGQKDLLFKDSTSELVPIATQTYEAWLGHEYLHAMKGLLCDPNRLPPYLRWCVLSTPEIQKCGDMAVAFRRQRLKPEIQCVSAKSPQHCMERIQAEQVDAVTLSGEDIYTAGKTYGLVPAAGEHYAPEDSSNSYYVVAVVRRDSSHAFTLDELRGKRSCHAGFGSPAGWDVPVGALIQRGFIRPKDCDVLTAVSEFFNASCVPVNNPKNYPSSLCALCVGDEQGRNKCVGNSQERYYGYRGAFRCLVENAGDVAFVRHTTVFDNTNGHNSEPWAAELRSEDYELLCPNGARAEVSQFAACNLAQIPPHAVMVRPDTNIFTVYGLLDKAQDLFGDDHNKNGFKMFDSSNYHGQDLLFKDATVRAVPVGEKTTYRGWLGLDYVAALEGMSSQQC

In experiment [3] the target is T1, CD228 on cells stably expressing …. The source holds these as a separate data set.

Read-outs that look alike come from different tables or passages of the source.

The text below walks through data of patent US20250121082A1 (SHANDONG BOAN BIOTECHNOLOGY, published 2025).

B1: CA149-BNLD11 (antibody, human IgG1, kappa, V domains shown)
VH: EVQLVESGGGVVQPGRSLRLSCAASGFTFSSYAMHWVRQAPGKGLEWVAVISFDGSNKYYTDSVKGRFTISRDNSKNTLYLQMNSLRAEDTAVYYCAREVPYYYGSGPFDYWGQGTLVTVSS
VL: EIVLTQSPATLSVSPGERATLSCRASQSVSSNLAWYQQKPGQAPRHLIDGASSRASGIPDRFSGSGSGTDFTLTISRLEPEDFAVYYCQQYGSSPPFTFGPGTKVDIKR
modifications: BNLD11 linker-drug coupled to the TCEP-reduced antibody; sites not stated; BNLD11 linker-drug (MC-β-Ala-(glucuronide)PAB-MMAE) coupled to the TCEP-reduced antibody, average DAR 4.1; sites not stated
Turning to B1, in experiment [1], the “IC50 (ng/mL), inhibition of A375-CD228 cell proliferation” value was 61.8 ng/mL and the “IC50 (ng/mL), inhibition of MC38-CD228 cell proliferation” value was determined as 102 ng/mL. The “IC50 (ng/mL), inhibition of SK-MEL-5 cell proliferation” value in experiment [2] is 11.5 ng/mL. In experiment [3], the “IC50 (ng/mL), inhibition of A375-CD228 cell proliferation” value amounted to 13.9 ng/mL and the “IC50 (ng/mL), inhibition of A549-CD228 cell proliferation” value is 15.2 ng/mL.
